Source: publication PMC7431413 (2020)
One block for each binder: values may come before it.

B2: core fragment (CF) of STAT3, biotinylated (domain or fragment)
chain: GQANHPTAAVVTEKQQMLEQHLQDVRKRVQDLEQKMKVVENLQDDFDFNYKTLKSQGDMQDLNGNNQSVTRQKMQQLEQMLTALDQMRRSIVSELAGLLSAMEYVQKTLTDEELADWKRRQQIACIGGPPNICLDRLENWITSLAESQLQTRQQIKKLEELQQKVSYKGDPIVQHRPMLEERIVELFRNLMKSAFVVERQPCMPMHPDRPLVIKTGVQFTTKVRLLVKFPELNYQLKIKVCIDKDSGDVAALRGSRKFNILGTNTKVMNMEESNNGSLSAEFKHLTLREQRCGNGGRANCDASLIVTEELHLITFETEVYHQGLKIDLETHSLPVVVISNICQMPNAWASILWYNMLTNNPKNVNFFTKPPIGTWDQVAEVLSWQFSSTTKRGLSIEQLTTLAEKLLGPGVNYSGCQITWAKFCKENMAGKGFSFWVWLDNIIDLVKKYILALWNEGYIMGFISKERERAILSTKPPGTFLLRFSESSKEGGVTFTWVEKDISGKTQIQSVEPYTKQQLNNMSFAEIIMGYKIMDATNILVSPLVYLYPDIPKEEAFGKYCRPESQEHPEADPGSAAPYLKTKFICVTPTTCSNTI
modifications: biotin on the Avi-tag

How the values were obtained:
Experiment in all cases: FACS; yeast display
[1] = biological target: MS3-N5
[2] = biological target: MS3-N1
[3] = biological target: MS3-N7
[4] = biological target: MS3-7
[5] = biological target: MS3-1
[6] = biological target: MS3-8
[7] = biological target: MS3-4
[8] = biological target: MS3-2
[9] = biological target: MS3-5
[10] = biological target: B2

- Kd [1]: 39 nM
- Kd [2]: 65 nM
- Kd [3]: 38 nM
B1: N-terminal domain of STAT3, biotinylated (domain or fragment)
chain: QWNQLQQLDTRYLEQLHQLYSDSFPMELRQFLAPWIESQDWAYAASKESHATLVFHNLLGEIDQQYSRFLQESNVLYQHNLRRIKQFLQSRYLEKPMEIARIVARCLWEESRLLQTAATAAQQGGQANHPTAAVVT
modifications: biotin on the Avi-tag

Binder: B2
- Kd [4]: 135 nM
- Kd [5]: 127 nM
- Kd [6]: 235 nM
- Kd [7]: 18 nM
- Kd [8]: 104 nM
- Kd [9]: 88 nM

- Kd [10]: 8 nM
B3: monobody MS3-6, displayed on yeast cells (designed binder)
chain: VSSVPTKLEVVAATPTSLLISWDAPAVTVDFYHITYGETGGNSPVQEFTVPGSKSTATISGLKPGVDYTITVYAYVSYPEYYFPSPISINYRT
